According to publication PMC3443672, “The solution structure of the prototype foamy virus RNase H domain indicates an important role of the basic loop in substrate binding”:

Molecular target: PFV RNase H wt (prototype foamy virus, UniProt P14350 591-751)
Test: fluorescence anisotropy; 25 nM substrate; Fluorescence anisotropy: 25 nM substrate, excitation 652 nm, emission 673 nm; buffer, salt, pH and temperature not given (as described in ref 5)
Conditions: protein: recombinant; label: DY647 at 5' end of DNA strand; blunt

B1: 10/10-mer RNA/5'-DY647-DNA (DNA:RNA)
RNA: GCGACACCUG
DNA: CAGGTGTCGC
Work on B1 yielded a Kd of 23 ± 3 µM.
